The record followed here is PMC12756933, “Evidence for biomolecular condensates formed by the Escherichia coli MatP protein in spatiotemporal regulation of the bacterial cell division cycle” (International journal of biological macromolecules, 2025).

“And” between values parts separate entries of the source, which are not always exact repeats. Identical values can stand only once.

The stoichiometry N is the number of molecules, sites or subunits per partner or assembly.

B3: FtsZ (natural protein, E. coli, UniProt P0A9A6 1-383, looked up)
chain: MFEPMELTNDAVIKVIGVGGGGGNAVEHMVRERIEGVEFFAVNTDAQALRKTAVGQTIQIGSGITKGLGAGANPEVGRNAADEDRDALRAALEGADMVFIAAGMGGGTGTGAAPVVAEVAKDLGILTVAVVTKPFNFEGKKRMAFAEQGITELSKHVDSLITIPNDKLLKVLGRGISLLDAFGAANDVLKGAVQGIAELITRPGLMNVDFADVRTVMSEMGYAMMGSGVASGEDRAEEAAEMAISSPLLEDIDLSGARGVLVNITAGFDLRLDEFETVGNTIRAFASDNATVVIGTSLDPDMNDELRVTVVATGIGMDKRPEITLVTNKQVQQPVMDRYQQHGMAPLTQEQKPVAKVVNDNAPQTAKEPDYLDIPAFLRKQAD
modifications: Alexa Fluor 488 or Alexa Fluor 647 at amino groups, on the tracer fraction only (<1 mol of dye per mole of protein)
notes: FtsZ, E. coli; Oligomers of variable size without GTP, polymers with GTP; also called FtsZ-Alexa 488; FtsZ-Alexa 647

For series [1], the target named is T1, FtsZ (E. coli, UniProt P0A9A6 1-383).
T1 construct: FtsZ, Escherichia coli cell division protein; oligomers of variable size without GTP, polymers with GTP; also called FtsZ-GTP; GTP-triggered FtsZ polymers
T1 sequence (looked up): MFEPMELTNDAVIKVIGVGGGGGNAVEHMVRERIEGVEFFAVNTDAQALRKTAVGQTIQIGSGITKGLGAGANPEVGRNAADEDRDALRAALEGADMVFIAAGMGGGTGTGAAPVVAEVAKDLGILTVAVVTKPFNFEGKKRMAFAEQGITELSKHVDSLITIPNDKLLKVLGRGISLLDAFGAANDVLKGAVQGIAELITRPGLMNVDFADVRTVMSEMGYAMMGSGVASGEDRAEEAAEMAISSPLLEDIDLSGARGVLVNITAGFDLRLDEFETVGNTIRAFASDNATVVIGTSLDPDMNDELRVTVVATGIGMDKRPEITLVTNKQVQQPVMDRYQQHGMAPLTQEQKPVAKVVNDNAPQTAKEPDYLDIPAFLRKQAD
Kind of series: AUC; multi-signal sedimentation velocity (MSSV), 20 uM FtsZ and 7 uM MatP, absorbance at 250 and 280 nm, 48,000 rpm; dilute solution buffer (50 mM Tris-HCl pH 7.5, 5 mM MgCl2) with 100 mM KCl, no GTP. Conditions: both partners purified.

Series [2] has as its target B3. The experiment in a line: fluorescence polarisation; anisotropy titration of MatP (50 nM MatP-Alexa 488, 96 nM total MatP) with unlabelled FtsZ; 50 mM Tris-HCl pH 7.5, 5 mM MgCl2, 100 mM KCl; simple 1:1 model, apparent Kd = FtsZ concentration at half of the maximum signal. Conditions: both partners purified. For orientation: In fluorescence polarisation assays a small probe gives low polarisation when free and higher when bound to something large.

Series [3] concerns the molecule itself. The experiment in a line: fluorescence correlation spectroscopy; dilute solution buffer: 50 mM Tris-HCl pH 7.5, 5 mM MgCl2, 100 mM KCl, 0.05 g/L BSA; 10 uM MatP with 10 nM MatP-Alexa 488 as tracer, alone or with 20 uM unlabelled FtsZ, no GTP; at 300 mM KCl the profiles of MatP and FtsZ/MatP overlapped.
Series [4] concerns the molecule itself. Kind of series: AUC; sedimentation velocity, dilute solution buffer with 100 mM KCl, GTP and GTP regeneration system, Rayleigh interference; FtsZ polymers with or without MatP.

B1: MatP (natural protein, E. coli, UniProt P0A8N0 1-150, looked up)
chain: MKYQQLENLESGWKWKYLVKKHREGELITRYIEASAAQEAVDVLLSLENEPVLVNGWIDKHMNPELVNRMKQTIRARRKRHFNAEHQHTRKKSIDLEFIVWQRLAGLAQRRGKTLSETIVQLIEDAENKEKYANKMSSLKQDLQALLGKE
notes: MatP, Escherichia coli, untagged; sediments as a dimer (2.5 S); also called Ter macrodomain organizer MatP; MatP-Alexa 488 (labelled tracer)
For B1, the binding result in series [1] is on record as “binds”.

B2: MatP (natural protein, E. coli, UniProt P0A8N0 1-150, looked up)
chain: MKYQQLENLESGWKWKYLVKKHREGELITRYIEASAAQEAVDVLLSLENEPVLVNGWIDKHMNPELVNRMKQTIRARRKRHFNAEHQHTRKKSIDLEFIVWQRLAGLAQRRGKTLSETIVQLIEDAENKEKYANKMSSLKQDLQALLGKE
modifications: Alexa Fluor 488 or Alexa Fluor 647 at amino groups, on the tracer fraction only (<1 mol of dye per mole of protein)
notes: MatP, E. coli, untagged; Labelled MatP was used as a tracer mixed with unlabelled MatP; Sediments as a dimer (2.5 S); also called Ter macrodomain organizer MatP; MatP-Alexa 488
On to B2, for which, in series [2], the Kd is 8 µM and 18 µM. Besides, the “stoichiometry N” value in series [3] was 2.

As for B3, the binding result in series [4] is listed as “binds”.
